The labels stand for the following.
B1: hLF mut3 (K28A) (natural protein)
chain: GRRRSVQWCAVSQPEATKCFQWQRNMRAVRGPPVSCIKRDSPIQCIQAIAENRADAVTLDGGFIYEAGLAPYKLRPVAAEVYGTERQPRTHYYAVAVVKKGGSFQLNELQGLKSCHTGLRRTAGWNVPIGTLRPFLNWTGPPEPIEAAVARFFSASCVPGADKGQFPNLCRLCAGTGENKCAFSSQEPYFSYSGAFKCLRDGAGDVAFIRESTVFEDLSDEAERDEYELLCPDNTRKPVDKFKDCHLARVPSHAVVARSVNGKEDAIWNLLRQAQEKFGKDKSPKFQLFGSPSGQKDLLFKDSAIGFSRVPPRIDSGLYLGSGYFTAIQNLRKSEEEVAARRARVVWCAVGEQELRKCNQWSGLSEGSVTCSSASTTEDCIALVLKGEADAMSLDGGYVYTAGKCGLVPVLAENYKSQQSSDPDPNCVDRPVEGYLAVAVVRRSDTSLTWNSVKGKKSCHTAVDRTAGWNIPMGLLFNQTGSCKFDEYFSQSCAPGSDPRSNLCALCIGDEQGENKCVPNSNERYYGYTGAFRCLAENAGDVAFVKDVTVLQNTDGNNNEAWAKDLKLADFALLCLDGKRKPVTEARSCHLAMAPNHAVVSRMDKVERLKQVLLHQQAKFGRNGSDCPDKFCLFQSETKNLLFNDNTECLARLHGKTTYEKYLGPQYVAGITNLKKCSTSPLLEACEFLRK
B2: hLF mut7 (N673A/S678A) (natural protein)
chain: GRRRSVQWCAVSQPEATKCFQWQRNMRKVRGPPVSCIKRDSPIQCIQAIAENRADAVTLDGGFIYEAGLAPYKLRPVAAEVYGTERQPRTHYYAVAVVKKGGSFQLNELQGLKSCHTGLRRTAGWNVPIGTLRPFLNWTGPPEPIEAAVARFFSASCVPGADKGQFPNLCRLCAGTGENKCAFSSQEPYFSYSGAFKCLRDGAGDVAFIRESTVFEDLSDEAERDEYELLCPDNTRKPVDKFKDCHLARVPSHAVVARSVNGKEDAIWNLLRQAQEKFGKDKSPKFQLFGSPSGQKDLLFKDSAIGFSRVPPRIDSGLYLGSGYFTAIQNLRKSEEEVAARRARVVWCAVGEQELRKCNQWSGLSEGSVTCSSASTTEDCIALVLKGEADAMSLDGGYVYTAGKCGLVPVLAENYKSQQSSDPDPNCVDRPVEGYLAVAVVRRSDTSLTWNSVKGKKSCHTAVDRTAGWNIPMGLLFNQTGSCKFDEYFSQSCAPGSDPRSNLCALCIGDEQGENKCVPNSNERYYGYTGAFRCLAENAGDVAFVKDVTVLQNTDGNNNEAWAKDLKLADFALLCLDGKRKPVTEARSCHLAMAPNHAVVSRMDKVERLKQVLLHQQAKFGRNGSDCPDKFCLFQSETKNLLFNDNTECLARLHGKTTYEKYLGPQYVAGITALKKCATSPLLEACEFLRK
B3: hLF mut1 (R24S) (natural protein)
chain: GRRRSVQWCAVSQPEATKCFQWQSNMRKVRGPPVSCIKRDSPIQCIQAIAENRADAVTLDGGFIYEAGLAPYKLRPVAAEVYGTERQPRTHYYAVAVVKKGGSFQLNELQGLKSCHTGLRRTAGWNVPIGTLRPFLNWTGPPEPIEAAVARFFSASCVPGADKGQFPNLCRLCAGTGENKCAFSSQEPYFSYSGAFKCLRDGAGDVAFIRESTVFEDLSDEAERDEYELLCPDNTRKPVDKFKDCHLARVPSHAVVARSVNGKEDAIWNLLRQAQEKFGKDKSPKFQLFGSPSGQKDLLFKDSAIGFSRVPPRIDSGLYLGSGYFTAIQNLRKSEEEVAARRARVVWCAVGEQELRKCNQWSGLSEGSVTCSSASTTEDCIALVLKGEADAMSLDGGYVYTAGKCGLVPVLAENYKSQQSSDPDPNCVDRPVEGYLAVAVVRRSDTSLTWNSVKGKKSCHTAVDRTAGWNIPMGLLFNQTGSCKFDEYFSQSCAPGSDPRSNLCALCIGDEQGENKCVPNSNERYYGYTGAFRCLAENAGDVAFVKDVTVLQNTDGNNNEAWAKDLKLADFALLCLDGKRKPVTEARSCHLAMAPNHAVVSRMDKVERLKQVLLHQQAKFGRNGSDCPDKFCLFQSETKNLLFNDNTECLARLHGKTTYEKYLGPQYVAGITNLKKCSTSPLLEACEFLRK
B4: hLF mut4 (R30A) (natural protein)
chain: GRRRSVQWCAVSQPEATKCFQWQRNMRKVAGPPVSCIKRDSPIQCIQAIAENRADAVTLDGGFIYEAGLAPYKLRPVAAEVYGTERQPRTHYYAVAVVKKGGSFQLNELQGLKSCHTGLRRTAGWNVPIGTLRPFLNWTGPPEPIEAAVARFFSASCVPGADKGQFPNLCRLCAGTGENKCAFSSQEPYFSYSGAFKCLRDGAGDVAFIRESTVFEDLSDEAERDEYELLCPDNTRKPVDKFKDCHLARVPSHAVVARSVNGKEDAIWNLLRQAQEKFGKDKSPKFQLFGSPSGQKDLLFKDSAIGFSRVPPRIDSGLYLGSGYFTAIQNLRKSEEEVAARRARVVWCAVGEQELRKCNQWSGLSEGSVTCSSASTTEDCIALVLKGEADAMSLDGGYVYTAGKCGLVPVLAENYKSQQSSDPDPNCVDRPVEGYLAVAVVRRSDTSLTWNSVKGKKSCHTAVDRTAGWNIPMGLLFNQTGSCKFDEYFSQSCAPGSDPRSNLCALCIGDEQGENKCVPNSNERYYGYTGAFRCLAENAGDVAFVKDVTVLQNTDGNNNEAWAKDLKLADFALLCLDGKRKPVTEARSCHLAMAPNHAVVSRMDKVERLKQVLLHQQAKFGRNGSDCPDKFCLFQSETKNLLFNDNTECLARLHGKTTYEKYLGPQYVAGITNLKKCSTSPLLEACEFLRK
B5: human lactoferrin (hLF), wild type (natural protein)
chain: GRRRSVQWCAVSQPEATKCFQWQRNMRKVRGPPVSCIKRDSPIQCIQAIAENRADAVTLDGGFIYEAGLAPYKLRPVAAEVYGTERQPRTHYYAVAVVKKGGSFQLNELQGLKSCHTGLRRTAGWNVPIGTLRPFLNWTGPPEPIEAAVARFFSASCVPGADKGQFPNLCRLCAGTGENKCAFSSQEPYFSYSGAFKCLRDGAGDVAFIRESTVFEDLSDEAERDEYELLCPDNTRKPVDKFKDCHLARVPSHAVVARSVNGKEDAIWNLLRQAQEKFGKDKSPKFQLFGSPSGQKDLLFKDSAIGFSRVPPRIDSGLYLGSGYFTAIQNLRKSEEEVAARRARVVWCAVGEQELRKCNQWSGLSEGSVTCSSASTTEDCIALVLKGEADAMSLDGGYVYTAGKCGLVPVLAENYKSQQSSDPDPNCVDRPVEGYLAVAVVRRSDTSLTWNSVKGKKSCHTAVDRTAGWNIPMGLLFNQTGSCKFDEYFSQSCAPGSDPRSNLCALCIGDEQGENKCVPNSNERYYGYTGAFRCLAENAGDVAFVKDVTVLQNTDGNNNEAWAKDLKLADFALLCLDGKRKPVTEARSCHLAMAPNHAVVSRMDKVERLKQVLLHQQAKFGRNGSDCPDKFCLFQSETKNLLFNDNTECLARLHGKTTYEKYLGPQYVAGITNLKKCSTSPLLEACEFLRK
B6: hLF mut8 (E687A/K691A) (natural protein)
chain: GRRRSVQWCAVSQPEATKCFQWQRNMRKVRGPPVSCIKRDSPIQCIQAIAENRADAVTLDGGFIYEAGLAPYKLRPVAAEVYGTERQPRTHYYAVAVVKKGGSFQLNELQGLKSCHTGLRRTAGWNVPIGTLRPFLNWTGPPEPIEAAVARFFSASCVPGADKGQFPNLCRLCAGTGENKCAFSSQEPYFSYSGAFKCLRDGAGDVAFIRESTVFEDLSDEAERDEYELLCPDNTRKPVDKFKDCHLARVPSHAVVARSVNGKEDAIWNLLRQAQEKFGKDKSPKFQLFGSPSGQKDLLFKDSAIGFSRVPPRIDSGLYLGSGYFTAIQNLRKSEEEVAARRARVVWCAVGEQELRKCNQWSGLSEGSVTCSSASTTEDCIALVLKGEADAMSLDGGYVYTAGKCGLVPVLAENYKSQQSSDPDPNCVDRPVEGYLAVAVVRRSDTSLTWNSVKGKKSCHTAVDRTAGWNIPMGLLFNQTGSCKFDEYFSQSCAPGSDPRSNLCALCIGDEQGENKCVPNSNERYYGYTGAFRCLAENAGDVAFVKDVTVLQNTDGNNNEAWAKDLKLADFALLCLDGKRKPVTEARSCHLAMAPNHAVVSRMDKVERLKQVLLHQQAKFGRNGSDCPDKFCLFQSETKNLLFNDNTECLARLHGKTTYEKYLGPQYVAGITNLKKCSTSPLLEACAFLRA
B7: hLF mut5 (R24S/R27A/K28A/R30A) (natural protein)
chain: GRRRSVQWCAVSQPEATKCFQWQSNMAAVAGPPVSCIKRDSPIQCIQAIAENRADAVTLDGGFIYEAGLAPYKLRPVAAEVYGTERQPRTHYYAVAVVKKGGSFQLNELQGLKSCHTGLRRTAGWNVPIGTLRPFLNWTGPPEPIEAAVARFFSASCVPGADKGQFPNLCRLCAGTGENKCAFSSQEPYFSYSGAFKCLRDGAGDVAFIRESTVFEDLSDEAERDEYELLCPDNTRKPVDKFKDCHLARVPSHAVVARSVNGKEDAIWNLLRQAQEKFGKDKSPKFQLFGSPSGQKDLLFKDSAIGFSRVPPRIDSGLYLGSGYFTAIQNLRKSEEEVAARRARVVWCAVGEQELRKCNQWSGLSEGSVTCSSASTTEDCIALVLKGEADAMSLDGGYVYTAGKCGLVPVLAENYKSQQSSDPDPNCVDRPVEGYLAVAVVRRSDTSLTWNSVKGKKSCHTAVDRTAGWNIPMGLLFNQTGSCKFDEYFSQSCAPGSDPRSNLCALCIGDEQGENKCVPNSNERYYGYTGAFRCLAENAGDVAFVKDVTVLQNTDGNNNEAWAKDLKLADFALLCLDGKRKPVTEARSCHLAMAPNHAVVSRMDKVERLKQVLLHQQAKFGRNGSDCPDKFCLFQSETKNLLFNDNTECLARLHGKTTYEKYLGPQYVAGITNLKKCSTSPLLEACEFLRK

This experiment concerns the target T1, HAdV-C5 hexon labeled with AlexaFluor594 (human adenovirus C5 (HAdV-C5), UniProt P04133 1-952, AlexaFluor594 label (sites not given)).
T1 chain: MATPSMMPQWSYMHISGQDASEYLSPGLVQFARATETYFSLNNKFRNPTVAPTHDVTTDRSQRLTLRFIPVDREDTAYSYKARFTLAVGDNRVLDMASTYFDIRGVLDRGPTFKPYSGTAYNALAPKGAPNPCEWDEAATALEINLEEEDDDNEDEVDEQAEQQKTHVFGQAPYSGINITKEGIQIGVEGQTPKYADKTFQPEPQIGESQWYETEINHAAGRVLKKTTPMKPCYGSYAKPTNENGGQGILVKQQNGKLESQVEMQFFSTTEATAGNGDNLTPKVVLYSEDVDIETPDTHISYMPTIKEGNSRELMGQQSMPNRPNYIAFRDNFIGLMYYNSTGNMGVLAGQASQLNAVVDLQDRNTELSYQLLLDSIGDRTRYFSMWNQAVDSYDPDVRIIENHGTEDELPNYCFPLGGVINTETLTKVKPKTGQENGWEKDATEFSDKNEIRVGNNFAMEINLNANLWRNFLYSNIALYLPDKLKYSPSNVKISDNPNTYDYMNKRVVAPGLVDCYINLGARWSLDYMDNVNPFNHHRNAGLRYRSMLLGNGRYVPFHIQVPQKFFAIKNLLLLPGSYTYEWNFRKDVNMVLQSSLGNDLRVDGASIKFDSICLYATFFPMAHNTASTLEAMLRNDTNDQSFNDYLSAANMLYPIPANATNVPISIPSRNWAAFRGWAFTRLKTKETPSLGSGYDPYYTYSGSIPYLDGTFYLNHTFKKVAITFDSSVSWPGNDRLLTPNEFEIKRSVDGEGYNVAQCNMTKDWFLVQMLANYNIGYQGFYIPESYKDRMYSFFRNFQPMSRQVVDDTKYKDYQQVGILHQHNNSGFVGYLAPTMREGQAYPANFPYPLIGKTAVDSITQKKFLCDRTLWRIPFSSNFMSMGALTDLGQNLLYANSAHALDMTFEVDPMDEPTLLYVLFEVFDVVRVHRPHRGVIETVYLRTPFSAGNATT
Put plainly: MST.
By Kd is commonly meant the free concentration of one partner at which half of the binding sites on the other are occupied at equilibrium, for simple one-to-one binding. Low readings indicate higher affinity, high ones lower affinity. In turn, B1 had an equilibrium dissociation constant (Kd) of 125 nM. The value for B2 was 207 nM; that for B3 was 247 nM.

With B4, the Kd worked out at 207 nM.

As to B5, the Kd was 117 nM. This Kd is about 1.8-fold lower than that of the molecule before. The result for B6 reads 370 nM; that for B7, 602 nM.

The values are drawn from paper PMC10949841 (2024).
